Consider one protein from doi:10.1101/2020.08.14.248047v1.

Substrate in the data set: O=C(CCc1ccc(O)cc1)c1c(O)cc(O)cc1O[C@@H]1O[C@H](CO)[C@@H](O)[C@H](O)[C@H]1O
Nature of the data set: cells, lysate or membranes. The note with it: Xenopus oocytes, pH 5.0, 15 min uptake, cumulative transport assay.

B1: PUP8 (AtPUP8) (Arabidopsis thaliana) (protein)
chain: MEITQVIYVNDHNNIEANLTGQEEMNTTMEIESSSVPQSKNYKKWLRISIYVFFVLACQALSTILGRVYYENGGKSTWMGTLVQLIGFPVLFLFRFFSQTKNPKPTEADFRKFSSFTILGSVYIVTGLLVSANSYMSSVGLLYLPVSTFSLILASQLAFTAFFSYFLNSQKFTPFIVNSLFLLTISSALLVVNTDSENTAKVSRVKYVIGIICTIGASAGIGLLLSLVQLILRKVLKKQTFSTVTDLVAYQSLVASCVVLIGLFASGEWKTLTSEMENYKLGKVPYVMTLASIAISWQVYTIGVVGLIFESSSVFSNSITAVGLPIVPVVAVIVFHDKMNASKIFSIILAIWGFISFVYQHYLDEKKLKTSHTSPVGDPHLLPAEEGHTNIHSV
For the protein B1, the Km is 296 ± 39 µM.

The term Km denotes the concentration of substrate that gives half-maximal velocity.
